Experimental data: the nanobody polyreactivity screen of Harvey et al. (2022)

Assay: yeast display, Sf9 membrane polyspecificity reagent, FACS + sequencing; frameworks hold sequencing errors
In short: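 In a synthetic yeast display library (Saccharomyces cerevisiae BJ5465), nanobody expression was induced with galactose for 36–48 hours. FACS gates were set low and high (top ~1%) using anti-HA fluorescence for expression and streptavidin fluorescence for binding of the Sf9 membrane reagent. Each polyreactivity label is drawn from the gate of origin.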

Row | Sequence | polyreactivity (PSR sort gate)
1 | QVQLVESGGGLVQAGGSLRLSCAASGIIFERNAMGWYRQAPGKERELVAAISSNGGSTYYADSVKGRFTISRDNAKNTVYLQMNSLKPEDTAVYYCAAQGVYAGSRYYYWGQGTQVTVSS | high polyreactivity
2 | QLQLVESGGGLVQAGGSLRLSCAASGSIFCQNNMGWYRQAPGKERELVDTITSAGSTYYADSVKGRFTISRANAQNTVYLQMNSLKPEYTAVFYCAAELYRYGFYVPIYPYSYDYWGQGTQVTVSS | low polyreactivity
3 | QVQLVESGGGLVQAGGSLRLSCAASGFIFPAYAMGWYRQAPGKERELVAAITSNGGSTYYADSVKGRFTITRDNAKNTVYLQMNSLKPEDTAVYYCNADWYWDYGWVYPEYYYWGQGTQVTVSS | high polyreactivity
4 | QVQLVESGGGLVQAGGSLRLSCPASGLTFGGNAMGWYRQEPGKERELVAAISWSDDTTDYADSVKGRFTISRDNAKNTVYLQMNSLKPEDTAVYYCAARLPFEHVDYWGQGTQVTVSS | low polyreactivity
5 | QVQLVETGGGLVQAGGSLRLSCAASGRIFTYYAMGWYRQAPGKERELVAGISSRGTRTYYADSVKGRFTISRDNAKNTVYLQMNSLKPDDTAVYYCAAYPQFWYWDYNYWGQGTQVTVSS | high polyreactivity
6 | QVQLVETGGGLVQAGGSLRLSCAASGSIFVPYGMGWYRQAPGKERELVAAIRKRGSSTYYADSVKWRFTNSRDNAKNTVYLQMNSLKPEDTAVYYCASTWVSVWYRYDYWGQGTQVTVSS | high polyreactivity
7 | QVQLVESGGGLVQAGGCLRLSCAASGNTFYGYAMGWYRQAPGKERELVASITLSGDSTYYADSVKGRFTISRDNAMNTVYLQMNSLKPEYTAVYYCAGVYTYPLGYYHYTYDYWGQGTQVTVSS | low polyreactivity
8 | QVQLVESGGGLVQAGGSLRLSCAASGRIFNVNAMGWYRQAPGKERELVAGITRSGGSTYYADSVKWRFTISRDNAKNTVYLQMNSLNPEDTAVYYCATQATPWYRYYYWGQGTQVTVSS | high polyreactivity
9 | QVQHVESGGGLVQAGGSLRLSCAASGRIFGSYAMVGYIQAPGKETELDAAIRWSGGNTYYADSVKGRFTITRDNAKNTVYFQMNSLKPEDTAVYYCNARTARSYSKTSYRFSSYNYWGQGTQVTVSS | high polyreactivity
10 | QVQLVESGGGLVQAGGSLRLSCAASGLTLEGYVMGWYRQAPGKERELVAAISRRGASTYYADSVKGRFTISRDNAKNTVYLQMNSLKTEDTAVYYCAAYGAYNNYRGQTSLGYGYDSWGQGTQVTVSS | high polyreactivity
11 | QVQLVESGLGLVQAGGSLRLSCAASGSIFNIYAMGWYRQAPGKERELVAAITTGTRTYADSVKGLFTISRDNAKNTVYLLMNSLKPEDTAVDYCAAVSPTYPNTFYRYNYWGQGTQVTVSS | low polyreactivity
12 | QVQLVESAGGLVQAGGSLRLSCAASGSIFRLNALGWSRQQPGQVRELVAAITWSDSSTYYADSVKGRFTISRDTAKNTVYLQMNSLKPEDTAVSYCAGDPQSYKYDYWGQGTQVTVSS | low polyreactivity
13 | QVQLVESGGGLVQAGGSLRLRCAASGRIFRLYDMGWYRHAPGKEREFVAAISSSGDSTYYADSVKGRFTISRDNAKNTVYLQMNSLKPEDTAVYYCAAVTRRYVLSTFYYWGQGTQVTVSS | high polyreactivity
14 | QVQLVESGGGLVQAGGSLRLSCAASGRIITGNAMGWYRQAPGKERELVATITRRGGSTYYADSVKGRFTISRDNAKNTVYLQMNSLKPEDTAVYYCAANRLFSYDKYGYWGQGTQVTVSS | high polyreactivity
15 | QVQLVESGGGLVQAGGSLRLSCAASGSTFIFYAMGWYRQAPGKERELVASITSRAASTYYADSVKGRFTISRDIAKNTVYLQMNSLKPEDTAVYYCAATFSYTLFWWSSFLLYDYWGQGTQVTVSS | low polyreactivity
16 | QVQLVESGGGLVQAGGSLRLSCAASGRIFDKYTMGWYRQAPGKERELVAAISKSGSGTFYADSVKGRFTISRDNAKNTVYLQMNSLKPEDTAVYYCARVYTVGTGRSWRLDYCGQGTQVTVSS | high polyreactivity
17 | QVQLVESGGRLVQAGGSLSLSCAASGIILLHYAMGWYRQAPGKERELVAAISSSGGRTYYADSVKGRFTISRDTAKITFYLQLTSLKPEDTAVYYCNTLTRLVYDGMGYWGQGTQVTVSS | high polyreactivity
18 | QVQLVESGGGLVQAGGSLRLSCAASGSIFGVYAMRWYRQAPGKERELVATISRSGAITYYADSVKGRFTISRDNAKNTVYLQMNSLKPEDTAVYYCAADFFSRDWGQGTQVTVSS | low polyreactivity
19 | QVQLVESGVGLVQAGGSLRLSCAASGRSFGPYAMGWYSQAPGKERELVAAISSSGGSTYYADSVKGRFTISRDNAKNNVYLQMNSLKPEDTAVYYCATYFARGYNSWGQGTQVTVSS | high polyreactivity
20 | QDQLVESGGGLVQAGGSLRLSCAASGSTFRWYAMGWYRQAPGKERELVAAIRRIGSRTYADSVKGRFTISRDNAKNTVYLQMNSLKPEDTAVYYCATRYKYTGYDYWGQGTQVTVTS | high polyreactivity
21 | HVRLQESGGGLVQAGGSLRQSCAASGAISPYYDMGWYRLAPGKEREFVASIAHGGTTYYADSVKGRFTTSRDNAKNTVYLQMNSLKPEDTAVYYCAVAYDVWHSHIYRGQGTQVTVSS | high polyreactivity
22 | QVQLVESGGGLVQAGGSLRLSCAASGRTFDYYAMGWYRPAPGKERELVARISWNGGSTRYADSVKGRFTISRDNAKNTVYLQMNSLKPEDTAVYYCKKVPYYAGQHYDYWGRGTQVTVSS | high polyreactivity

Row | Sequence | polyreactivity (PSR sort gate)
23 | QFQLVESGGGLVQAGGSLRLSCAASGIIFGRYTMGWYRDAPGKERELVAAITSSGITYYADSVKGRFTISRDNAKNTVYLQMNSLKPEDTAVYYCAADVGYWGRSRGYPSDDYDYWGQGTQVTVSS | low polyreactivity
24 | QVQLVDSGGGLVQAGGSLRLSCAASGSIFPYNDMGWYRKAPGKERELVARITNGGSTNYADSVKGRFTISRDNAKNTVYLQMNSLKPEDTAVYYCNKDGTQEFAPDGHEYWGQCTQVTVSS | low polyreactivity
25 | QVQLVESGGGLVQAGGSLRLSCAASGRTCYYTMGWYRPAPGKDRELVAAITWSVDSTYYADSVKGRFTISRDNAKNTVYLHMNSLKPEVTAVYYCAVQPPPLNGLYDYWGQGTQVTVSS | low polyreactivity
26 | QVKLVESGGGLVQAGGSLRLSCAASGRICLSYTMGWYRQAPGKERELVATIDSGVSTNYADSVKGRFTITRDNAKNTVYVQMNSLKPEDTAVYYGNADGFYSSHGYDYWGQGTQVTVSS | low polyreactivity
27 | QVQLVESGGGLVQAGGSLRLSCAASGFIFYIYAMGWYRQAPGKERELVAAISRSSARTYYADSVKGRFTISRYNAKNTVYLQMISLKPEDTAVYDCAARYSGQWYRGPQYGYWGQGTQVTVSS | high polyreactivity
28 | QVQLVESGGGLVQAGGSLRLSCAASGYIFVWYAMGWSRQAPGKERELVATISGGGGTYYADSVKGRFTISRDNAKNNVYFQMNSLNPEDTAVYYCNKGVGWTEASPYSPEYDYWGQGTQVSVSS | low polyreactivity
29 | QVQLVESGGGLVLAGGSLRLSCAASGSTFTRNAMGWYRQAPGKERELVATISSGGSTNYADSVKGRFTISRDNAKNTVYLQMNSLKPEDTAVYYCAKRSLYRYYYWGQGPQVTVSS | high polyreactivity
30 | QVQLVESGGGLVQAGGSLRLSCAASGRIITAYYAMGWSRQAPGKERELVASISSSGTSTYADSVKGRFTISRDNAKNTVYLQMNSLKPEDTAVYYCATRKLRTRRYDYGYWGQGTQVTVSS | low polyreactivity
31 | QVQLVESGGGLVQAGGSIRLSCAASGRTFACNSMGCYRQAPGKERELVARIRSSGSTYYADSVKGRFTISRDNAKNTVYLQMNSLKPEDTAVYYCAADIRFWYGYYYWGQGTQVTVSS | high polyreactivity
32 | QVQLVESGGGLVQAGGSLRLSCAASGSIFGYYTMGWYRQAPGKERELVAAISSSGGRTYYADSVKGRFTISRDNAKNTVYLQLNSLKPEDTAVYYCAAVPIKRGLILGDRGYNYWGQGTQVTVSS | high polyreactivity
33 | QVQLVESGGGLVQAGGSLRLSCAASGSIFTSYTMGWYSQAPGKERELVAAIDSGGDSTYYADSVKGRFTISRDNAKNTVYLQMNSLKPEDTAVYYCAAEPQYWWQDYRYNYWGQGTQVTVSS | high polyreactivity
34 | QVQLVESGGGLVQAGGSLRLSCAASGSTFYIYAMGWYRQAPGKEREMVARISGSGGSTYYADSVKGRFTISRDNAKNTVYLQMNSLKPEDTAVYYCAADDIYKYYQYYAVPYYRYDYWGQGTQVTVSS | low polyreactivity
35 | QVQLVESGGGLVQAGGSLRLSCAASGSIFSVYAMGWYRQAPGKERELVAGITRGGSTYADSVKGRFTISRDNAKNTVYLQMNSLKPEDTAVSYCAADALIATPSWGKYNYWGQGTQVTVSS | high polyreactivity
36 | QVQLVESGGGLVQAGGSLRLSCAASGYIFKYNAMGWYRQAPGKERELVAAISGRGGSTYYADSVKGRFTISRDNAKNTVYLQMNSLKPEDTAVYYCNADYQARRYNYWGQGTQVTVSS | high polyreactivity
37 | QVQLVESGAGIVQAGGSLRLCCAATGITFDFYAMGWYTQAPGKERELVAAISYSGTSTSYADSVKGRFTISRDNAKNTVYLQMNSLKPEDTAVYYCNARIGWTHSYYELDYWGQGTQVTVSS | low polyreactivity
38 | QVQLVESGGGLVQAGGSLGLSCAASGRIFWTYAMGWYRQAPGKERELVASITWSGGSTYYADSVKGRFTISRDNANNTDYLQMNSLKPEDTSVYYCNTDVLAPYDSGYWGQGTQVTVSS | low polyreactivity
39 | QVQLVESGGGLVQAGGSLRLSCAASGRTFPWKVMGWYRQPPGKERELVAAITRSGGSTYYADSVKGRFTISRDNAKNTVYLQMNSLKQEDTAVYYCAKRGYTSSRRWIYDYWGQGTQVTVSS | high polyreactivity
40 | QVQLVESGGGLVQAGGSLRLSCAASGSIFEYNDMGSYRQAPGKERELVAAITTGGRTSYADSVKGRFTISRDNAKYTVYLQMNSLKPEDTAVYYCNKDHSSYGASGYDYWGQGTQVTVSS | low polyreactivity
41 | QVQLVESGGCLDQAGGSLRLSCAASGSIFYYYTMGWSRQAPGKEREFVATITYSGGSTYYADSVKGRITISRDNAKYTVYLQMNSLKPEDTAVYYCNARPRYYDWVDYWGQGTQVTVSS | low polyreactivity
42 | QVQLVESGGGLVQAGGSLRLSCAASGITLSLYAMGWYRQAPGKERELVAAISRGGGRTYYADSVKGRFTISRDNAKNTVYLQMNSLKPEDTAVYYCNAYRRSYRWYGDLGEYWGQGTQVTVSS | high polyreactivity
43 | QVQLVESGGGLVQAGGSLRLSCAASGRTIRWYTMGWYRQAPGKERELVAGISSSGGSTYYAESVKGRYTISRDYAKNTVYLQMNSLKPEDTAVYYCAASAAYYGFYKSVSYEYWGQGTQLTVSS | low polyreactivity
